In PMC6499816 (Nature Communications, 2019):
Ends that are not written are not given here.

What was measured:
Conditions in all cases: both partners purified
LC3B (recombinant, BLI) = LC3B (recombinant, BLI) (human, UniProt Q9GZQ8 1-120); test: BLI; biotinylated LIR peptide (50 μg/ml) immobilised on streptavidin biosensor, ATG8 in solution; Octet Red 96; 25 mM Tris pH 7.5, 150 mM NaCl, 0.5 mM TCEP, 0.1% Tween-20, 1 mg/ml BSA; 25 °C; Kd from response against concentration
[1] = target: T1, GABARAP-L2 (recombinant, BLI) (human, UniProt P60520 1-117); test: as above
T1 construct: human GABARAP-L2; source: recombinant; bacterial expression plasmid pAL

[2] = target: T2, GABARAP (recombinant, BLI) (human, UniProt O95166 1-117); test: as above
T2 construct: full-length human GABARAP; also called WT GABARAP; source: recombinant; bacterial expression plasmid pAL

[3] = target: GABARAP-L1 (recombinant, BLI) (human, UniProt Q9H0R8 1-117); test: as above
LC3A = target: T3, LC3A (human, UniProt Q9H492 1-121); test: BLI; biotinylated LIR peptide immobilised on streptavidin biosensors (Octet Red 96), ATG8 protein in solution; 25 mM Tris pH 7.5, 150 mM NaCl, 0.5 mM TCEP, 0.1% Tween-20, 1 mg/ml BSA, 25 °C; Kd from response against concentration, Y=Rmax*X/(Kd+X)
T3 construct: LC3A, human, full length; The plasmid has a 3C protease site after GST; source: recombinant, expressed in bacteria from the pAL plasmid (modified pGEX-6P2)

LC3C = target: T4, LC3C (human, UniProt Q9BXW4 1-126); test: as above
T4 construct: LC3C, human, full length; The plasmid has a 3C protease site after GST; source: recombinant, expressed in bacteria from the pAL plasmid (modified pGEX-6P2)

GABARAP = target: T5, GABARAP (human, UniProt O95166 1-117); test: as above
T5 construct: GABARAP, human, full length; The plasmid has a 3C protease site after GST; also called GABARAP WT; source: recombinant, expressed in bacteria from the pAL plasmid (modified pGEX-6P2)

Chain of GABARAP-L1 (recombinant, BLI) (Q9H0R8 whole entry, looked up): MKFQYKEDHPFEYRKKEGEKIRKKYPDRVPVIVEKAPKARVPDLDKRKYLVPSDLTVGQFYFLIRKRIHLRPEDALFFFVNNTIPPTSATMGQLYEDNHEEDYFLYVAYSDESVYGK
T1 sequence (P60520 whole entry): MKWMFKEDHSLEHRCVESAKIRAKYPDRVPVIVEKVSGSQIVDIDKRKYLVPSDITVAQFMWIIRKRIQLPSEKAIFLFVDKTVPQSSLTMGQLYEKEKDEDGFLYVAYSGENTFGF

SDNCSGGDDDWTHLSSKEVDPSTG (also: biotin, position not given here) [p62 LIR peptide (biotinylated, BLI)]
Kd (LC3B (recombinant, BLI)): 4.5 µM | Kd [1]: 5.2 µM

GGSSGNTHDDFVMIDFKPAFSKDD (also: biotin, position not given here) [ATG13 LIR peptide (biotinylated, BLI)]
Kd [2]: 0.59 µM | Kd [3]: 0.53 µM

PDSIDAHTFDFETIPHPNIEQTIH (also: biotin, position not given here) [FIP200 LIR peptide (biotinylated, BLI)]
Kd [2]: 5.6 µM | Kd [3]: 7 µM

DTDDFVMVPAQFPGDLV (peptide, UniProt O75385 353-369, looked up, not fully specified (N-terminus); also: biotinylated, position not given here, source: synthetic peptide) [ULK1 (aa 353-369) LIR peptide]
Kd (LC3A): 7.71 µM | Kd (LC3C): 1.9 µM | Kd (GABARAP): 0.116 µM
